Experimental findings from publication PMC8409985 are described below.

This assay has as its target truncated human ACE2 ectodomain (residues 19–613) with C-terminal AVI-tag and 6xHis-tag, biotinylated (human) (UniProt Q9BYF1). As to the kind of experiment: BLI.

“SARS-CoV-2 RBD variant S477N (from UniProt P0DTC2 319-541) (domain or fragment)” registered a t1/2 of 2.68 min.
